{
  "source": "paper PMC8615523",
  "test_in_all_cases": "SEC; Ni-NTA eluates injected into a HiLoad 16/60 Superdex 200 pg column; elution with 30 mM Tris-HCl pH 7.4; absorbance at 280 nm",
  "key": {"cpmCarmine185-186": {"molecular_target": "cpmCarmine185-186"}, "cpmMaroon185-186": {"molecular_target": "cpmMaroon185-186"}, "cpmMaroon196-186": {"molecular_target": "cpmMaroon196-186"}},
  "data": [
    {"substance": "cpmCarmine185-186", "values": [
      {"measurement": "percent monomeric", "setting": "cpmCarmine185-186", "result": 60, "unit": "%"}
    ]},
    {"substance": "cpmMaroon185-186", "values": [
      {"measurement": "stoichiometry N", "setting": "cpmMaroon185-186", "result": 2}
    ]},
    {"substance": "cpmMaroon196-186", "values": [
      {"measurement": "percent monomeric", "setting": "cpmMaroon196-186", "result": 70, "unit": "%"}
    ]}
  ]
}
